B1: cr743 (nucleic acid)
guide: GTTTAAGAGCTAAGCTGGAAACAGCATAGCAACTTTAAATAAGGCTAGTCCGTTATCAACTTGAAAAAGTGGCGCCGAGTCGGCGCT
modifications: listed as DNA, chemistry not fully specified
B2: cr738 (nucleic acid)
guide: GTTTAAGAGCTAAGCTGGAAACAGCATAGCATGTTTAAATTAGGCTAGTCCGTTATCAACTTGAAAAAGTGGCACCGAGTCGGTGCT
modifications: listed as DNA, chemistry not fully specified
B3: cr638 (nucleic acid)
guide: GTTTAAGAGCTAAGCTGGAAACAGCATAGCAAGCTTAAATAAGGGTACTCCGTTATCAACTTGAAAAAGTGGCACCGAGTCGGTGCT
modifications: listed as DNA, chemistry not fully specified
B4: cr012 (nucleic acid)
guide: GTTGAAGAGCTAAGCTGGAAACAGCATAGCAAGTTTAAATAAGGCTAGTCCGTTATCAACTTGAAAAAGTGGCACCGAGTCGGTGCT
modifications: listed as DNA, chemistry not fully specified
B5: cr526 (nucleic acid)
guide: GTTTAAGAGCTAAGCTGGAAACAGCATAGCAAGTTTAAATAATGCTAGTCAGTTATCAACTTGAAAAAGTGGCGCCGAGTCGGCGCT
modifications: listed as DNA, chemistry not fully specified
B6: cr988 (nucleic acid)
guide: GTTTAAGAGCTAAGCTGGAAACAGCATAGCAACTTTAAATAAGGCTAGTCCGTTATCAAGTTGAAAAACTGGCACCGAGTCGGTGCT
modifications: listed as DNA, chemistry not fully specified
B7: cr241 (nucleic acid)
guide: GTTTAAGAGCTAAGCTGGAAACAGCATAGCAACTTTAAATAAGGCTAGTCCGTTATCAACATGAAAATGTGGCACCGAGTCGGTGCT
modifications: listed as DNA, chemistry not fully specified
B8: cr007 (nucleic acid)
guide: GTATAAGAGCTAAGCTGGAAACAGCATAGCAAGTTTAAATAAGGCTAGTCCGTTATCAACTTGAAAAAGTGGCACCGAGTCGGTGCT
modifications: listed as DNA, chemistry not fully specified
B9: cr301 (nucleic acid)
guide: GTTTAAGAGCTAAGCTGGAAACAGCATAGCAACTTTAAATAAGGCTAGTCCGTTATCAACTTGAAAAAGTGGCACCGATTCGGTGCT
modifications: listed as DNA, chemistry not fully specified
B10: cr627 (nucleic acid)
guide: GTTTAAGAGCTAAGCTGGAAACAGCATAGCAAGTTTAAATAATGCTAGTCAGTTATCAACTTGAGAAAGTGGCACCGAGTCGGTGCT
modifications: listed as DNA, chemistry not fully specified
B11: cr202 (nucleic acid)
guide: GTTTAAGAGCTAAGCTGGAAACAGCATAGCAACTTTAAATAAGGCTAGTCCGTTATCAACTTGAAAAAGTGACACCGAGTCGGTGTT
modifications: listed as DNA, chemistry not fully specified
B12: cr312 (nucleic acid)
guide: GTTTAAGAGCTAAGCTGGAAACAGCATAGCAAGGTTAAATAAGGCTAGTCCGTTATCAACGTGAAAACGTGGCACCGAGTCGGTGCT
modifications: listed as DNA, chemistry not fully specified
B13: cr757 (nucleic acid)
guide: GTTTAAGAGCTAAGCTGGAAACAGCATAGCAACTTTAAATAAGGCTAGTCCGTTATCAACTAGAAATAGTGGCACCGAGTCGGTGCT
modifications: listed as DNA, chemistry not fully specified
B14: cr571 (nucleic acid)
guide: GTTTAAGAGCTAAGCTGGAAACAGCATAGCAAGGTTAAATAAGGCTAGTCCGTTATCAACTCGAAAGAGTGGCACCGAGTCGGTGCT
modifications: listed as DNA, chemistry not fully specified
B15: cr095 (nucleic acid)
guide: GTATAAGTGCTAAGCTGGAAACAGCATAGCAAGTTTAAATAAGGCTAGTCCGTTATCAACTTGAAAAAGTGGCACCGAGTCGGTGCT
modifications: listed as DNA, chemistry not fully specified
B16: cr574 (nucleic acid)
guide: GTTTAAGAGCTAAGCTGGAAACAGCATAGCAAGTTTCAATAAGGCTAGTCCGTTATCAACTTGAAAAAGTGGCACCGAGTCGGTGCT
modifications: listed as DNA, chemistry not fully specified
B17: cr313 (nucleic acid)
guide: GTTTAAGAGCTAAGCTGGAAACAGCATAGCAAGTTTAAATAAGGCTAGTCCGTTATCAACTTGAAAAAGTGGGTGGGAGTCGCTCCT
modifications: listed as DNA, chemistry not fully specified
B18: cr378 (nucleic acid)
guide: GTTTAAGAGCTAAGCTGGAAACAGCATAGCAAGTTTAAATGAGGCTAGTCCGTTATCAACTTGAAAAAGTGGCACCGAGTCGGTGCT
modifications: listed as DNA, chemistry not fully specified
B19: cr880 (nucleic acid)
guide: GTTTAAGAGCTAAGCTGGAAACAGCATAGCAAGGTTAAATAAGGCTAGTCCGTTATCAACTTGAAAAAGTGGCATCGAGTCGATGCT
modifications: listed as DNA, chemistry not fully specified
B20: cr830 (nucleic acid)
guide: GTTTAAGAGCTAAGCTGGAAACAGCATAGCAAGTTTAAATAAGGCTAGGCCGTTATCAACTTGAAAAAGTGTCACCGAGTCGGTGCT
modifications: listed as DNA, chemistry not fully specified
B21: cr314 (nucleic acid)
guide: GTTTAAGAGCTAAGCTGGAAACAGCATAGCAAGGTTAAATAAGGCTAGTCCGTTATCAACTTGAAAAAGTGGAACCGAGTCGGTTCT
modifications: listed as DNA, chemistry not fully specified
B22: cr357 (nucleic acid)
guide: GTTTAAGAGCTAAGCTGGAAACAGCATAGCAAGGTTAAATAAGGCTAGTCCGTTATCAACTTGAAAAAGTGGCTCCGAGTCGGAGCT
modifications: listed as DNA, chemistry not fully specified
B23: cr096 (nucleic acid)
guide: GTTTGTGAGCTAAGCTGGAAACAGCATAGCAAGTTTAAATAAGGCTAGTCCGTTATCAACTTGAAAAAGTGGCACCGAGTCGGTGCT
modifications: listed as DNA, chemistry not fully specified
B24: cr009 (nucleic acid)
guide: GTGTAAGAGCTAAGCTGGAAACAGCATAGCAAGTTTAAATAAGGCTAGTCCGTTATCAACTTGAAAAAGTGGCACCGAGTCGGTGCT
modifications: listed as DNA, chemistry not fully specified
B25: cr570 (nucleic acid)
guide: GTTTAAGAGCTAAGCTGGAAACAGCATAGCAACTTTAAATAAGGCTAGTCCGTTATCAACTTGAAAAAGTGGCTCCGAGTCGGAGCT
modifications: listed as DNA, chemistry not fully specified
B26: cr616 (nucleic acid)
guide: GTTTAAGAGCTAAGCTGGAAACAGCATAGCAAGTTTAAATAAGGCTAGTCCGTTATCAAGATGAAAATCTGGCACCGAGTCGGTGCT
modifications: listed as DNA, chemistry not fully specified
B27: cr151 (nucleic acid)
guide: GTTTAAGAGCTAAGCTGGAAACAGCATAGCAACTTTAAATAAGGCTAGTCCGGTATCAACTTGAAAAAGTGGCACCGAGTCGGTGCT
modifications: listed as DNA, chemistry not fully specified
B28: cr593 (nucleic acid)
guide: GTTTAAGAGCTAAGCTGGAAACAGCATAGCAAGTTTAAATAAGGCTAGTCCGTTATCACCTTGAAAAAGGGGCACCGAGTCGGTGCT
modifications: listed as DNA, chemistry not fully specified
B29: cr010 (nucleic acid)
guide: GTTAAAGAGCTAAGCTGGAAACAGCATAGCAAGTTTAAATAAGGCTAGTCCGTTATCAACTTGAAAAAGTGGCACCGAGTCGGTGCT
modifications: listed as DNA, chemistry not fully specified
B30: cr933 (nucleic acid)
guide: GTTTAAGAGCTAAGCTGGAAACAGCATAGCAAGGTTAAATAAGGCTAGTCCGTTATCAACTTGAAAAAGTGTCACCGAGTCGGTGAT
modifications: listed as DNA, chemistry not fully specified
B31: cr716 (nucleic acid)
guide: GTTTAAGAGCTAAGCTGGAAACAGCATAGCCATTTTAAATAAGGCTAGTCCGTTATCAACTTGAAAAAGTGGCACCGAGTCGGTGCT
modifications: listed as DNA, chemistry not fully specified

System: K562 CRISPRi cells
Test: Constant region variant library pooled growth screen, K562
Format: cell-based, human
Conditions: sgRNA constant region variants; activity relative to the original, un-modified constant region cr995
In short: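 Pooled library transduced into K562 CRISPRi cells in duplicate, puromycin-selected, grown at >2000× coverage and sampled after 4 to 8 days. Phenotypes per targeting sequence:constant region pair were normalized to the unmodified-scaffold pairing to give relative activity.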

Molecule	Mean relative activity
B1	0.03495
B2	0.03306
B3	0.03012
B4	0.02769
B5	0.03359
B6	0.0305
B7	0.03304
B8	0.03285
B9	0.03132
B10	0.02763
B11	0.03423
B12	0.03032
B13	0.02851
B14	0.03194
B15	0.02974
B16	0.03217

Molecule	Mean relative activity
B17	0.03202
B18	0.02893
B19	0.03183
B20	0.02925
B21	0.03303
B22	0.03253
B23	0.02764
B24	0.02783
B25	0.02846
B26	1.035
B27	0.03186
B28	1.035
B29	0.02976
B30	0.0286
B31	0.03033
